Reference: patent US20220195054A1 (BERGEN TEKNOLOGIOVERF RING, published 2022)
Where “and” joins values, the source holds several entries; their conditions need not be identical. Equal entries are not always repeated.

Experiments:
[1] = biological target: recombinant human Axl-Fc chimera (rhAxl-Fc; R&D Systems, Cat. no. 154-AL) (human) (UniProt P30530); assay: SPR two-injection competition on immobilised Axl-Fc; second injection, competitor bound first: YW327.6S2
[2] = biological target: recombinant human Axl-Fc chimera (rhAxl-Fc; R&D Systems, Cat. no. 154-AL) (human) (UniProt P30530); assay: SPR two-injection competition on immobilised Axl-Fc; response expected for the second sample (first: 10G5)
[3] = biological target: recombinant human Axl-Fc chimera (rhAxl-Fc; R&D Systems, Cat. no. 154-AL) (human) (UniProt P30530); assay: SPR two-injection competition on immobilised Axl-Fc; response expected for the second sample (first: YW327.6S2)
[4] = biological target: recombinant human Axl-Fc chimera (rhAxl-Fc; R&D Systems, Cat. no. 154-AL) (human) (UniProt P30530); assay: SPR two-injection competition on immobilised Axl-Fc; second injection, competitor bound first: 10G5
[5] = biological target: recombinant human Axl-Fc chimera (rhAxl-Fc; R&D Systems, Cat. no. 154-AL) (human) (UniProt P30530); assay: SPR two-injection competition on immobilised Axl-Fc; first injection
[6] = biological target: T1, recombinant human Tyro3/Dtk-Fc chimera (rhTyro3/Dtk-Fc; R&D Systems, Cat no. 859-DK) (human, UniProt Q06418 41-429); assay: Biacore 3000 SPR, rhTyro3/Dtk-Fc on a CM5 chip, antibody injected for 3 min; concentration from Example 2, not printed on the sheet
T1 construct: Bought construct; Fc part of the bought chimera not given
T1 sequence: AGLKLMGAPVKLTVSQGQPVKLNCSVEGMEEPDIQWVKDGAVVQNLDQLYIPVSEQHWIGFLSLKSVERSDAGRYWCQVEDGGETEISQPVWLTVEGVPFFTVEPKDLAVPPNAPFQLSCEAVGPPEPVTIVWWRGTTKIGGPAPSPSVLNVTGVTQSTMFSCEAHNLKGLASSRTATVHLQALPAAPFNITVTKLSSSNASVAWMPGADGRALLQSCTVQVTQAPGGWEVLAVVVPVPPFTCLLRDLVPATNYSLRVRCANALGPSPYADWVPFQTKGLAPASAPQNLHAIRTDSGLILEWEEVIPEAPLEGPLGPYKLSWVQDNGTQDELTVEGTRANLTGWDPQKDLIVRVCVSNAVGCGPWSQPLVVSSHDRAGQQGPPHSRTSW

[7] = biological target: T2, recombinant human Mer-Fc chimera (rhMer-Fc; R&D Systems, Cat no. 891-MR) (human, UniProt Q12866 21-505); assay: Biacore 3000 SPR, rhMer-Fc on a CM5 chip, antibody injected for 3 min; concentration from Example 2, not printed on the sheet
T2 construct: Bought construct; Fc part of the bought chimera not given
T2 sequence: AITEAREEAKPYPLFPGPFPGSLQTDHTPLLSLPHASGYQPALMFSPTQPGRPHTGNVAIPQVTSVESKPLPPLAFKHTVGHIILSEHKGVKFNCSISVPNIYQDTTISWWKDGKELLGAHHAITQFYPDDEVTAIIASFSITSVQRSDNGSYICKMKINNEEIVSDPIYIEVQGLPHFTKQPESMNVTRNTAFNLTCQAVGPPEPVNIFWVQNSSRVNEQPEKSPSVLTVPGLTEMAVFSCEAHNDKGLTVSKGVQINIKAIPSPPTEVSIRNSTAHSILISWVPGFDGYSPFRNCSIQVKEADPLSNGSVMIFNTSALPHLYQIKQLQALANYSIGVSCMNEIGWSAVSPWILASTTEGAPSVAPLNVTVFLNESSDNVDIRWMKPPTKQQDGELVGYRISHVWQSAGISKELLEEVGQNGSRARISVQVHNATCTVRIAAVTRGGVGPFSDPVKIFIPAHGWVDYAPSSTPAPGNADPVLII

[8] = biological target: T3, recombinant cyno-Axl-Fc (extracellular domain of Axl from Macaca fascicularis fused to human Fc) (cynomolgus monkey (Macaca fascicularis), UniProt P30530 26-451 (human entry)); assay: Biacore 3000 SPR, cyno-Axl-Fc on a CM5 chip, antibody injected at 10 µg/mL for 3 min, 5 min dissociation [upper panel 10G5]
T3 construct: Made by transient expression in CHO cells; also called Axl from cynomolgus monkey; not shown: human Fc
T3 chain: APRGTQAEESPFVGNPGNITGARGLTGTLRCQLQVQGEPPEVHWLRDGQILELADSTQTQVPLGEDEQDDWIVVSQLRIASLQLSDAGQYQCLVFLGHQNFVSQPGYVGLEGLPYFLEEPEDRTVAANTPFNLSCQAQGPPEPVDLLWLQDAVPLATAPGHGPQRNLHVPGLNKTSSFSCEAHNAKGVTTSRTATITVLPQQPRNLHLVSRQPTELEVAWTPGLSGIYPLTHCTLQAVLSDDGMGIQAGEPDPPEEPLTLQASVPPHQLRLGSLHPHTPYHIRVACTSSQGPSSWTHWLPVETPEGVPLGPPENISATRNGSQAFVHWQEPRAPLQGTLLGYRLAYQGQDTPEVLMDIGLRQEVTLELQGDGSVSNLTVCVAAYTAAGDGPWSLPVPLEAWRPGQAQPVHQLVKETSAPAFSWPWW

[9] = biological target: T4, recombinant human Axl-Fc chimera (rhAxl-Fc; R&D Systems, Cat. no. 154-AL) (human, UniProt P30530 26-451); assay: SPR (Biacore 3000, 25 C), rhAxl-Fc immobilised (190 RU), antibody as analyte, 1:1 Langmuir
T4 construct: Bought construct; also called rhAxi-Fc; Hu-Axl-Fc; Fc part of the bought chimera not given

[10] = biological target: T4, recombinant human Axl-Fc chimera …; assay: SPR (Biacore 3000, 25 C), rhAxl-Fc immobilised (190 RU), antibody as analyte, koff/kon
[11] = biological target: T4, recombinant human Axl-Fc chimera …; assay: SPR (Biacore), rhAxl immobilised; same values as Table 1
[12] = biological target: T4, recombinant human Axl-Fc chimera …; assay: SPR (Biacore 3000, 25 C), rhAxl-Fc immobilised; ln2/koff
[13] = biological target: T5, human Axl receptor on cells (MDA-MB-231, HeLa, LX2, Axl-positive cells) (human, UniProt P30530 26-894); assay: cell-based or functional assay
[14] = biological target: T4, recombinant human Axl-Fc chimera …; assay: SPR (Biacore), rhAxl immobilised on the sensor chip, antibody as analyte
[15] = biological target: T5, human Axl receptor on cells …; assay: flow cytometry on MDA-MB-231 cells, APC-conjugated anti-human IgG F(ab')2 detection
[16] = biological target: T5, human Axl receptor on cells …; assay: flow cytometry titration on MDA-MB-231 cells, Kd of the fitted curve, the axis of the fitted curves is Conc. (nM) [table under the graph]
[17] = biological target: T4, recombinant human Axl-Fc chimera …; assay: SPR (Biacore), rhAxl immobilised on the sensor chip
[18] = biological target: T5, human Axl receptor on cells …; assay: cell-based or functional assay; remark: listed apart in the source
[19] = biological target: recombinant human Axl-Fc chimera (rhAxl-Fc; R&D Systems, Cat. no. 154-AL) (human) (UniProt P30530); assay: SPR two-injection competition on immobilised Axl-Fc; response expected for the second sample (first: H2L1)
[20] = biological target: recombinant human Axl-Fc chimera (rhAxl-Fc; R&D Systems, Cat. no. 154-AL) (human) (UniProt P30530); assay: SPR two-injection competition on immobilised Axl-Fc; response expected for the second sample (first: Gas6)
[21] = biological target: recombinant human Axl-Fc chimera (rhAxl-Fc; R&D Systems, Cat. no. 154-AL) (human) (UniProt P30530); assay: SPR two-injection competition on immobilised Axl-Fc; second injection, competitor bound first: H2L1
[22] = biological target: recombinant human Axl-Fc chimera (rhAxl-Fc; R&D Systems, Cat. no. 154-AL) (human) (UniProt P30530); assay: SPR two-injection competition on immobilised Axl-Fc; second injection, competitor bound first: Gas6

B1: chimeric 1H12 anti-Axl antibody (antibody, from another filing, V domains shown)
VH: EVQLVESGGDLVKPGGSLKLSCAASGFTFSSYGMSWVRQTPDKRLEWVATISSGGSYTYYPDSVKGRFTISRDNAKNTLYLQMSSLKSEDTAMYYCARHPIYYTYDDTMDYWGQGTSVTVSS
VL: ENVLTQSPAIMAASPGEKVTMTCSASSSVSSGNFHWYQQKPGTSPKLWIYRTSNLASGVPARFSGSGSGTSYSLTISSMEAEDAATYYCQQWSGYPWTFGGGTKLEIK
In the case of B1, the 2nd Response [1] is reported as 400, the Expected response if independent [2] is reported as 220 and the Expected response if independent [3] is reported as 400. For the same binder, the 2nd Response [4] was 180 and the 1st Response [5] was 400 and 220.

B2: mouse monoclonal antibody 10G5 (antibody, V domains shown)
VH: QVQLQQSGAELVRPGASVKLSCKASGYSFTDFYINWVRQRPGQGLEWIARIFPGGDNTYYNEKFKGKATLTAEESSSTAYIQLSSLTSEDSAVYFCARRGLYYAMDYWGQGISVTVSS
VL: DVLMTQTPLSLPVSLGDQASISCRSSQSLVHSNGIPYLHWYLQKPGQSPKLLIYRVSNRFSGVPDRFSGSGSGTDFTLKISRVEAEDLGVYFCSQGTHVPPTFGGGTKLEIK
notes: Whole mouse IgG purified from hybridoma supernatant; also called murine 10G5; MAb 10G5
B2: no binding (tested: 10 µg/mL) [6]; no binding (tested: 10 µg/mL) [7]; binds [8]. The koff [9] was 0.000439 s⁻¹, the kon [9] was 829000 M⁻¹ s⁻¹ and the Kd [10] was 0.53 nM. For the same binder, the “Half-life (t1/2)” value [11] was 26.3 min, the Kd [11] was 0.53 nM and the koff [11] was 0.000439 s⁻¹. The kon [11] was 829000 M⁻¹ s⁻¹ and the “Half-life (t1/2)” value [12] was 26.3 min.

B3: humanised 10G5 antibody H1L1 (antibody, human IgG1, kappa, V domains shown)
VH: EVQLVQSGAGLVQPGGSVRLSCAASGYSFTDFYINWVRQAPGKGLEWIARIFPGGDNTYYNEKFKGRFTLSADTSSSTAYLQLNSLRAEDTAVYYCARRGLYYAMDYWGQGTLVTVSS
VL: DIQMTQSPSSLSASVGDRVTITCRSSQSLVHSNGIPYLHWYQQKPGKAPKLLIYRVSNRFSGVPSRFSGSGSGTDFTLTISSLQPEDFATYYCSQGTHVPPTFGQGTKVEIKR
notes: H1L1 is read as GH1 heavy chain + GL1 light chain; also called hu10G5 H1L1
With B3 the “EC50 (pM), tumour cell killing by antibody-Saporin conjugates, as in Example 20” value [13] was 17.1 pM, the Kd [14] was 0.105 nM and the koff [14] was 0.000161 s⁻¹. For the same binder, the kon [14] was 1.54e+06 M⁻¹ s⁻¹, the “EC50 (read off the curve)” value [15] was roughly 0.1 nM and the Kd [16] was 0.12 nM. For the same binder, the “Half-life (t1/2)” value [17] was 71.7 min and the “EC50 (pM), killing of MDA-MB-231 cells by antibody coupled to Saporin (FabFc-ZAP), XTT/PMS viability after 72 hrs” value [18] was 3.44 pM.

B4: humanised 10G5 antibody H2L1 (antibody, human IgG1, kappa, V domains shown)
VH: EVQLVESGGGLVQPGGSLRLSCAASGYSFTDFYINWVRQAPGKGLEWVARIFPGGDNTYYNEKFKGRFTLSADTSKSTAYLQMNSLRAEDTAVYYCARRGLYYAMDYWGQGTLVTVSS
VL: DIQMTQSPSSLSASVGDRVTITCRSSQSLVHSNGIPYLHWYQQKPGKAPKLLIYRVSNRFSGVPSRFSGSGSGTDFTLTISSLQPEDFATYYCSQGTHVPPTFGQGTKVEIKR
notes: H2L1 is read as GH2 heavy chain + GL1 light chain; also called hu10G5 H2L1; Hu10G5 (H2L1)
With B4 the “EC50 (pM), tumour cell killing by antibody-Saporin conjugates, as in Example 20” value [13] was 2.66 pM, the Kd [14] was 0.0686 nM and the koff [14] was 0.000142 s⁻¹. It also gave a kon [14] of 2.07e+06 M⁻¹ s⁻¹, an Expected response if independent [19] of 323 and an Expected response if independent [20] of 318. For the same binder, the “EC50 (read off the curve)” value [15] was roughly 0.2 nM, the Kd [16] was 0.192 nM and the “Half-life (t1/2)” value [17] was 81.4 min. The “EC50 (pM), killing of MDA-MB-231 cells by antibody coupled to Saporin (FabFc-ZAP), XTT/PMS viability after 72 hrs” value [18] was 2.68 pM, the 2nd Response [21] was 8.9 and the 2nd Response [22] was 301. The 1st Response [5] was 323.
